The test system of series [1] is 818-P1.
The subject of series [2] is 818-C1 MB.
The subject of series [3] is 818-C1MA.

Two substances from patent publication US20230324389 can be followed below.

Chain of MMP9 (chain, as listed by the source): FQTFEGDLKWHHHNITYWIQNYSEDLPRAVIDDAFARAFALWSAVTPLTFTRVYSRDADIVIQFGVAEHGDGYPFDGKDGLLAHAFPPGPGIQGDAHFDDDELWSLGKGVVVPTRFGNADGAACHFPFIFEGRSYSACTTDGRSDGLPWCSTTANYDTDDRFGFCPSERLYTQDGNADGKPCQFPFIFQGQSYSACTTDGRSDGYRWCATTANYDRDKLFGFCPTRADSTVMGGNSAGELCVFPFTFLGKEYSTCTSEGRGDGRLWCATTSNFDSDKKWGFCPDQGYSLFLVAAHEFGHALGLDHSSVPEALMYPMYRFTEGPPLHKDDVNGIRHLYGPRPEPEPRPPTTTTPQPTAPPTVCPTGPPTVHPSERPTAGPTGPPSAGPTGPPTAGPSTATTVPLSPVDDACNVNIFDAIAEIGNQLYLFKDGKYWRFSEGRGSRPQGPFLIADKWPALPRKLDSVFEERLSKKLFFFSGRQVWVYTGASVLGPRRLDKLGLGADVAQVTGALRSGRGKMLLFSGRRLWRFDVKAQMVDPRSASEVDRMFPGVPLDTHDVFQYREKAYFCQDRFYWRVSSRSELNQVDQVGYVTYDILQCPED

In the case of MMP9, the “unmasking (protease cleavage) rate” value in series [1], in series [2] and in series [3] was “MMP9: 818-P1>818-C1 MB>818-C1MA” each time.
With “Urokinase-type Plasminogen Activator (uPA)”, the “unmasking (protease cleavage) activity” value in series [1] is “Unmasking activity attributable to uPA required higher concentrations of proteases and longer digestion times”; in series [2], “Unmasking activity attributable to uPA required higher concentrations of proteases and longer digestion times”; in series [3], “Unmasking activity attributable to uPA required higher concentrations of proteases and longer digestion times”.
